Assay results: patent US20230416361A1

B1: anti-CD200R antibody clone 21.3.1 (mIgG1k isotype) (antibody, V domains shown)
VH: QVQLQQPGSELVRPGASVKLSCKASGHTFTSYWMHWVKQRPGQGLEWIGNIYPGSGSINYDEKFKSKAKLTVDTSSRTAYMQLSSLTSEDSAVYYCLTMTGTSWGQGTLVTVSA
VL: DVQMIQSPSSLSASLGDIVTMTCQASQGTPINLHWFQQKPGKAPKLLISGASNLEDGVPSRFSGSRYGTAFTLTISSLEDEDMATYFCLQFTYIPWTFGGGTKLEIKR
B2: Antibody I-4P (antibody, human IgG4 S228P, kappa, V domains shown)
VH: QVQLVQSGAEVKKPGASVKVSCKASGFSFSSGYYMAWVRQAPGQGLEWMGLIGVGSGSLWYAQKFQGRVTMTRDTSTSTVYMELSSLRSEDTAVYYCARHFALSDPFNLWGQGTLVTVSS
VL: EIVLTQSPDFQSVTPKEKVTITCQASESIDSYLLWYQQKPDQSPKLLIKQASTLASGVPSRFSGSGSGTDFTLTINSLEAEDAATYYCQNYYDISSNDFGGGTKVEIKR
B3: hu2131_Q1E_M99G hIgG1k P238D (antibody, V domains shown)
VH: EVQLVQSGAEVKKPGASVKVSCKASGHTFTSYWMHWVRQAPGQGLEWMGNIYPGSGSINYDEKFQGRVTMTADTSTSTVYMELSSLRSEDTAVYYCLTGTGTSWGRGTLVTVSS
VL: DIQMTQSPSSLSVSVGDRVTITCQASQGTPINLHWFQQKPGKAPKLLISGASNLESGVPSRFSGSGSGTEFTFTISSLQPEDAATYYCLQFTYIPWTFGQGTKLEIKR

Columns and labels:
[1] = molecular target: human CD200R expressed on cells (human) (UniProt Q8TD46); assay: cell-based or functional assay
[2] = molecular target: human CD200R expressed on cells (human) (UniProt Q8TD46); assay: flow cytometry on Jurkat T cells expressing human CD200R, 24 h at 37 C, PE anti-hIgG secondary
[3] = molecular target: human CD200R expressed on cells (human) (UniProt Q8TD46)
[4] = molecular target: human CD200R expressed on cells (human) (UniProt Q8TD46); assay: flow cytometry on Jurkat T cells lentivirally expressing human CD200R, 24 h at 37 C, PE anti-hIgG secondary antibody, geometric MFI, non-linear curve fit
[5] = molecular target: extracellular domain of human CD200R (Met29-Leu243) (human) (UniProt Q8TD46); assay: SPR (Biacore), antibody captured by anti-human Fc, CD200R extracellular domain injected, single cycle kinetics, 25 C

Binder	Average % inhibition of SEAP activity at Log [Antibody], M = -8.18 [1] [%]	Average % inhibition of SEAP activity at Log [Antibody], M = -8.8 [1] [%]	Average % inhibition of SEAP activity at Log [Antibody], M = -9.57 [1] [%]	Average % inhibition of SEAP activity at Log [Antibody], M = -10.27 [1] [%]	Average % inhibition of SEAP activity at Log [Antibody], M = -10.9 [1] [%]	Average % inhibition of SEAP activity at Log [Antibody], M = -11.6 [1] [%]	Average % inhibition of SEAP activity at Log [Antibody], M = -12.3 [1] [%]	IC50 of inhibition of NF-kB-inducible SEAP reporter activity in CD200R-expressing THP-1 dual cells [1] [pM]	average maximal percentage inhibition (Emax) of SEAP activity [1] [%]	EC50 [2] [pM]	EC50 of DOK2 recruitment to CD200R, enzyme fragment complementation luminescence, PathHunter Jurkat CD200R cells co-cultured with FcgRIIb-expressing HEK293 cells [3] [pM]	EC50 [4] [pM]	EC50 of Dok2 recruitment to human CD200R (enzyme fragment complementation, PathHunter Jurkat CD200R cells co-cultured with FcγRIIb HEK293 cells) [1] [pM]	Kd [5] [pM]	koff [5] [s⁻¹]	kon [5] [M⁻¹ s⁻¹]
B1	35.3	28.3	23.4	9.8	1.1	1	1.7	141	33.2	–	–	–	–	–	–	–
B2	22.3	20.9	16.1	7.7	3.2	2.2	3.1	134	19.9	3400	1140	3430	1100	–	–	–
B3	–	–	–	–	–	–	–	–	–	530	437	–	440	< 19.3	< 1e-05	517000
